Experimental data published in paper PMC10039853, “Increasing the melting temperature of VHH with the in silico free energy score” (Scientific Reports, 2023).
Substitutions are numbered along the chain they refer to. Numbers in names are those of the source.

Assays:
Details in all cases: both partners purified
hen egg lysozyme [1] = target: T1, hen egg lysozyme (Gallus gallus (hen egg white), UniProt P00698); assay: SPR; Biacore T200; lysozyme immobilised on Sensor Chip CM5 by amine coupling to 200 RU; VHH injected 300 s, dissociation 600 s; running buffer PBST (PBS, 0.005% Tween 20); duplicate; 1:1 binding model
T1 construct: hen egg lysozyme (HEL), antigen of VHH D3-L11; also in the complex structure PDB 6JB8; also called HEL; antigen lysozyme; source: bought: Sigma-Aldrich, Cat No. L6876 (named for the ELISA)
T1 sequence (P00698 19-147): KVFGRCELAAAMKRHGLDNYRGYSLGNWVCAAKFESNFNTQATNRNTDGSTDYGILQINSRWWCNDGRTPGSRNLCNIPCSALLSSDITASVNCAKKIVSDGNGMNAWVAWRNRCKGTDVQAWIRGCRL

hen egg lysozyme [2] = target: T2, hen egg lysozyme (Gallus gallus (hen egg white), UniProt P00698); assay: SPR; Biacore T200; lysozyme immobilised on Sensor Chip CM5 by amine coupling (200 RU); VHH injected 300 s, dissociation 600 s in PBST (PBS, 0.005% Tween 20); 1:1 binding model; duplicate
T2 construct: hen egg lysozyme (HEL), the antigen of D3-L11; also in PDB 6JB8; The supplier is named for the ELISA only; also called HEL; antigen lysozyme; source: bought: Sigma-Aldrich, Cat No. L6876
T2 sequence (P00698 19-147): as above

hen egg lysozyme [3] = target: T1, hen egg lysozyme; assay: ELISA; lysozyme (1 ug/mL) coated on 384-well MaxiSorp plate overnight at 4 °C; serial concentrations of VHH in 5% BlockingOne in TBST, 1 h at room temperature; detected with Penta-His HRP conjugate

B1: D3-L11 A79W (VHH)
VHH: DVQLVESGGGSVQAGGSLRLSCAASGSTDSIEYMTWFRQAPGKAREGVAALYTHTGNTYYTDSVKGRFTISQDKAKNMWYLRMDSVKSEDTAIYTCGATRKYVPVRFALDQSSYDYWGQGTQVTVSS
notes: as the VHH chain of m2 (D3-L11, PDB 6JB8) with the stated substitution; Second-round mutant; same construct as m2; also called W mutant; source: ExpiCHO, transient transfection, purified from supernatant (His Mag Sepharose excel); not shown: His6 (after a SAG tripeptide linker), C-terminal, kept
fold decrease in affinity (KD) against wild type (hen egg lysozyme [1]): < 10 fold

B2: D3-L11 A79T (VHH)
VHH: B1 VHH with W79T
notes: as the VHH chain of Sm1 (D3-L11 wild type, PDB 6JB8) with A79T; SAG tripeptide linker before the C-terminal 6xHis tag; source: ExpiCHO, transient transfection, purified from supernatant (His Mag Sepharose excel); not shown: His6, C-terminal, kept
Kd (hen egg lysozyme [2]): 13.1 ± 0.4 pM

B3: D3-L11 G97F (VHH)
VHH: B1 VHH with W79A, G97F
notes: as the VHH chain of Sm1 (D3-L11 wild type, PDB 6JB8) with G97F; SAG tripeptide linker before the C-terminal 6xHis tag; source: ExpiCHO, transient transfection, purified from supernatant (His Mag Sepharose excel); not shown: His6, C-terminal, kept
Kd (hen egg lysozyme [2]): 6 ± 0.4 pM

B4: D3-L11 A79R (VHH)
VHH: B1 VHH with W79R
notes: as the VHH chain of m2 (D3-L11, PDB 6JB8) with the stated substitution; Second-round mutant; same construct as m2; also called R mutant; source: ExpiCHO, transient transfection, purified from supernatant (His Mag Sepharose excel); not shown: His6 (after a SAG tripeptide linker), C-terminal, kept
fold decrease in affinity (KD) against wild type (hen egg lysozyme [1]): < 10 fold

B5: D3-L11 A79F (VHH)
VHH: B1 VHH with W79F
notes: as the VHH chain of Sm1 (D3-L11 wild type, PDB 6JB8) with A79F; SAG tripeptide linker before the C-terminal 6xHis tag; source: ExpiCHO, transient transfection, purified from supernatant (His Mag Sepharose excel); not shown: His6, C-terminal, kept
Kd (hen egg lysozyme [2]): 12.1 ± 0.2 pM

B6: D3-L11 A79N (VHH)
VHH: B1 VHH with W79N
notes: as the VHH chain of Sm1 (D3-L11 wild type, PDB 6JB8) with A79N; SAG tripeptide linker before the C-terminal 6xHis tag; source: ExpiCHO, transient transfection, purified from supernatant (His Mag Sepharose excel); not shown: His6, C-terminal, kept
Kd (hen egg lysozyme [2]): 8.04 ± 0.07 pM

B7: D3-L11 A79K (VHH)
VHH: B1 VHH with W79K
notes: as the VHH chain of m2 (D3-L11, PDB 6JB8) with the stated substitution; Second-round mutant; same construct as m2; Too little protein for SPR; also called K mutant; source: ExpiCHO, transient transfection, purified from supernatant (His Mag Sepharose excel); not shown: His6 (after a SAG tripeptide linker), C-terminal, kept
binding result (hen egg lysozyme [3]): binds

B8: D3-L11 A79V (VHH)
VHH: B1 VHH with W79V
notes: as the VHH chain of m2 (D3-L11, PDB 6JB8) with the stated substitution; Second-round mutant; same construct as m2; also called V mutant; source: ExpiCHO, transient transfection, purified from supernatant (His Mag Sepharose excel); not shown: His6 (after a SAG tripeptide linker), C-terminal, kept
fold decrease in affinity (KD) against wild type (hen egg lysozyme [1]): < 2 fold | fold decrease in affinity (EC50) against wild type (hen egg lysozyme [3]): < 10 fold

B9: D3-L11 A79M (VHH)
VHH: B1 VHH with W79M
notes: as the VHH chain of Sm1 (D3-L11 wild type, PDB 6JB8) with A79M; SAG tripeptide linker before the C-terminal 6xHis tag; source: ExpiCHO, transient transfection, purified from supernatant (His Mag Sepharose excel); not shown: His6, C-terminal, kept
Kd (hen egg lysozyme [2]): 6.91 ± 0.1 pM

B10: D3-L11 A79H (VHH)
VHH: B1 VHH with W79H
notes: as the VHH chain of Sm1 (D3-L11 wild type, PDB 6JB8) with A79H; SAG tripeptide linker before the C-terminal 6xHis tag; source: ExpiCHO, transient transfection, purified from supernatant (His Mag Sepharose excel); not shown: His6, C-terminal, kept
Kd (hen egg lysozyme [2]): 23.1 pM

B11: D3-L11 A79S (VHH)
VHH: B1 VHH with W79S
notes: as the VHH chain of m2 (D3-L11, PDB 6JB8) with the stated substitution; Second-round mutant; same construct as m2; also called S mutant; source: ExpiCHO, transient transfection, purified from supernatant (His Mag Sepharose excel); not shown: His6 (after a SAG tripeptide linker), C-terminal, kept
fold decrease in affinity (KD) against wild type (hen egg lysozyme [1]): < 10 fold | fold decrease in affinity (EC50) against wild type (hen egg lysozyme [3]): < 10 fold

B12: D3-L11 A79Q (VHH)
VHH: B1 VHH with W79Q
notes: as the VHH chain of Sm1 (D3-L11 wild type, PDB 6JB8) with A79Q; SAG tripeptide linker before the C-terminal 6xHis tag; source: ExpiCHO, transient transfection, purified from supernatant (His Mag Sepharose excel); not shown: His6, C-terminal, kept
Kd (hen egg lysozyme [2]): 7.2 ± 0.03 pM

B13: D3-L11 G26I (VHH)
VHH: B1 VHH with G26I, W79A
notes: as the VHH chain of Sm1 (D3-L11 wild type, PDB 6JB8) with G26I; SAG tripeptide linker before the C-terminal 6xHis tag; source: ExpiCHO, transient transfection, purified from supernatant (His Mag Sepharose excel); not shown: His6, C-terminal, kept
Kd (hen egg lysozyme [2]): 25 ± 0.3 pM

B14: D3-L11 A79P (VHH)
VHH: B1 VHH with W79P
notes: as the VHH chain of m2 (D3-L11, PDB 6JB8) with the stated substitution; Second-round mutant; same construct as m2; Too little protein for SPR; also called P mutant; source: ExpiCHO, transient transfection, purified from supernatant (His Mag Sepharose excel); not shown: His6 (after a SAG tripeptide linker), C-terminal, kept
binding result (hen egg lysozyme [3]): binds

B15: D3-L11 A79T (VHH)
VHH: B1 VHH with W79T
notes: as the VHH chain of m2 (D3-L11, PDB 6JB8) with the stated substitution; Second-round mutant; same construct as m2; also called T mutant; source: ExpiCHO, transient transfection, purified from supernatant (His Mag Sepharose excel); not shown: His6 (after a SAG tripeptide linker), C-terminal, kept
fold decrease in affinity (KD) against wild type (hen egg lysozyme [1]): < 10 fold

B16: D3-L11 A79C (VHH)
VHH: B1 VHH with W79C
notes: as the VHH chain of Sm1 (D3-L11 wild type, PDB 6JB8) with A79C; SAG tripeptide linker before the C-terminal 6xHis tag; source: ExpiCHO, transient transfection, purified from supernatant (His Mag Sepharose excel); not shown: His6, C-terminal, kept
Kd (hen egg lysozyme [2]): 3.74 ± 0.03 pM

B17: anti-lysozyme VHH D3-L11, wild type (VHH)
VHH: B1 VHH with W79A
notes: anti-hen egg lysozyme VHH D3-L11, 127 amino acids; A SAG tripeptide linker stands between the VHH and the C-terminal 6xHis tag; also called WT; source: ExpiCHO, transient transfection, purified from supernatant (His Mag Sepharose excel); not shown: His6, C-terminal, kept
Kd (hen egg lysozyme [2]): 3.17 ± 0.19 pM
